This experiment has as its target tight-coupled 70S ribosome from Thermus thermophilus (Thermus thermophilus). Kind of experiment: co-sedimentation.

One substance from paper PMC3272701 can be followed below.

For the substance “elongation factor G (EF-G), Thermus thermophilus HB8 (from UniProt Q5SHN5 1-691) (enzyme)”, the occupancy of EF-G in the complexes lay in the range of 60 to 70%.
